Assay results taken from US20140193434A1 (TORAY INDUSTRIES, published 2014).

T1: human CAPRIN-1 protein on the cell membrane surface of human cancer cell lines (human, UniProt Q14444 2-709)
T1 sequence (looked up): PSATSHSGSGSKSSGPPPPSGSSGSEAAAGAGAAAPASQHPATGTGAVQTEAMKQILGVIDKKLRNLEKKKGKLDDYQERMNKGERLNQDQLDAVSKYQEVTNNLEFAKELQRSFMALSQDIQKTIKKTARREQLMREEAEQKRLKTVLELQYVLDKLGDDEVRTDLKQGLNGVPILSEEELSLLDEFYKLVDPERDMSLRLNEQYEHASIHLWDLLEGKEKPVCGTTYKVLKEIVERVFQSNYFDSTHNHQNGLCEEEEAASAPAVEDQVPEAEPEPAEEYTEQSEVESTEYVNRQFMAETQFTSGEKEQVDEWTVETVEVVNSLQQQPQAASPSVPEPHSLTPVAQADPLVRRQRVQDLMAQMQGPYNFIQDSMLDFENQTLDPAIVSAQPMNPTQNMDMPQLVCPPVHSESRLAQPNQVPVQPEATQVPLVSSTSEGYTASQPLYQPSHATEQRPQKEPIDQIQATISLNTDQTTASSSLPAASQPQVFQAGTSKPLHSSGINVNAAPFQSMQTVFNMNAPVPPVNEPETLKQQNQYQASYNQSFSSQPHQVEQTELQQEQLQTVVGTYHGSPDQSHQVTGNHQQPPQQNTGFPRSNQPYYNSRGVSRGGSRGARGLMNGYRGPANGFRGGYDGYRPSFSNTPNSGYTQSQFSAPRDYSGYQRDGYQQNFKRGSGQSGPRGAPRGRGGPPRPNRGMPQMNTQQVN

B1: human-mouse chimeric comparative monoclonal antibody 1 (antibody)
heavy: not shown
light: DIQMTQSPASLSASVGETVTITCRASGNIHNYLAWYQQKQGKSPQLLVYNAKTLADGVPSRFSGSGSGTQYSLKINSLQPEDFGSYYCQHFWSTLTFGAGTKLELKRTVAAPSVFIFPPSDEQLKSGTASVVCLLNNFYPREAKVQWKVDNALQSGNSQESVTEQDSKDSTYSLSSTLTLSKADYEKHKVYACEVTHQGLSSPVTKSFNRGEC
B2: human-mouse chimeric comparative monoclonal antibody 4 (antibody, human IgG1, kappa, V domains shown)
VH: EVQLHQFGAELVKPGASVKISCKASGYTFTDYNMDWVKQSHGKSLEWIGDINPNYDSTSYNQKFKGKATLTVDKSSSTAYMELRSLTSEDTAVYYCARSRSYDYEGFAYWGQGTLVTVSA
VL: SGDRVSLSCRASQSISNYLHWYQQKSHESPRLLIKYASQSISGIPSRFSGSGSGTDFTLSINSVETEDFGMYFCQQSNSWPYTFGAGTKLEIKQ
B3: human-mouse chimeric comparative monoclonal antibody 3 (antibody, human IgG1, kappa)
heavy: not shown
light: RTTSHMDSDIQLTQSPASLSASVGETVTITCRASGNIHNYLAWYQQKQGKSPQLLVYNAKTLADGVPSRFSGSGSGTQYSLKINSLQPEDFGSYYCQHFWSTLTFGGGTKLEIKQSDTVAAPSVFIFPPSDEQLKSGTASVVCLLNNFYPREAKVQWKVDNALQSGNSQESVTEQDSKDSTYSLSSTLTLSKADYEKHKVYACEVTHQGLSSPVTKSFNRGEC
B4: human-mouse chimeric comparative monoclonal antibody 7 (antibody, human IgG1, kappa, V domains shown)
VH: LQESGAELARPGASVKLSCKASGYTFTSYWMQWVKQRPGQGLEWIGAIYPGDGDTRYTQKFKGKATLTADKSSSTAYMQLSSLASEDSAVYYCARGEYGNYFAYWGQGTTVTVSS
VL: TSDASLGERVTITCKASQDINSYLSWFQQKPGKSPKTLIYRANRLVDGVPSRFSGSGSGQDYSLTISSLEYEDMGIYYCLQYDEFPLTFGGGTKLEIKQ

target: T1, human CAPRIN-1 protein on the cell …; experiment: cell-based or functional assay

Binder	cytotoxic activity (ADCC, chromium 51 release) against MCF7, HCT-116, MIAPaCa-2, Caki-2 and QG56
B1	< 5%
B2	< 5%
B3	< 5%
B4	< 5%
